Measured values from PMC6050341, “Direct observation of DNA target searching and cleavage by CRISPR-Cas12a”.

How the values were obtained:
AsCas12a WT [1] = target: T1, AsCas12a WT (Acidaminococcus sp., UniProt U2UMQ6 1-1307); assay: single-molecule FRET; 10 mM Mg2+; 20 nM RNP; transient S1 lifetime 0.13 +/- 0.01 s; stable stage II lifetime 94 s; smFRET: 10 mM Tris-HCl pH 8.0, 100 mM NaCl (100 mM KCl in Figs 4, 5), 10 mM MgCl2, 1 mM DTT, oxygen scavenger, 37 C; SpCas9 in NEB buffer 3
AsCas12a WT [2] = target: T1, AsCas12a WT; assay: single-particle tracking (TIRF); 1D diffusion, then stable stall at target about 50 s; smFRET: 10 mM Tris-HCl pH 8.0, 100 mM NaCl (100 mM KCl in Figs 4, 5), 10 mM MgCl2, 1 mM DTT, oxygen scavenger, 37 C; SpCas9 in NEB buffer 3
[3] = target: T2, dAsCas12a (catalytically dead) (Acidaminococcus sp., UniProt U2UMQ6 1-1307, E993A); assay: single-molecule FRET; 10 mM Mg2+; stable binding reached; smFRET: 10 mM Tris-HCl pH 8.0, 100 mM NaCl (100 mM KCl in Figs 4, 5), 10 mM MgCl2, 1 mM DTT, oxygen scavenger, 37 C; SpCas9 in NEB buffer 3; conditions: protein: recombinant; tags: His tag implied (pET28b, Ni-NTA); label: crRNA 3' Cy5; DNA Cy3, 5' biotin; DNA 5' overhang 2 nt
AsCas12a WT [4] = target: T1, AsCas12a WT; assay: single-molecule FRET; 10 mM Mg2+; 10 nM protein, 20 nM crRNA; smFRET: 10 mM Tris-HCl pH 8.0, 100 mM NaCl (100 mM KCl in Figs 4, 5), 10 mM MgCl2, 1 mM DTT, oxygen scavenger, 37 C; SpCas9 in NEB buffer 3
AsCas12a WT [5] = target: T1, AsCas12a WT; assay: single-molecule FRET; 5 nM AsCas12a, 10 nM crRNA; no stable binding, only short events; smFRET: 10 mM Tris-HCl pH 8.0, 100 mM NaCl (100 mM KCl in Figs 4, 5), 10 mM MgCl2, 1 mM DTT, oxygen scavenger, 37 C; SpCas9 in NEB buffer 3
AsCas12a WT [6] = target: T1, AsCas12a WT; assay: single-particle tracking (TIRF); loose binding; drift rate rises with flow; smFRET: 10 mM Tris-HCl pH 8.0, 100 mM NaCl (100 mM KCl in Figs 4, 5), 10 mM MgCl2, 1 mM DTT, oxygen scavenger, 37 C; SpCas9 in NEB buffer 3
[7] = target: T2, dAsCas12a (catalytically dead); assay: single-molecule FRET; 10 mM Mg2+; 100 mM KCl; no specific binding events (t < 30 ms); smFRET: 10 mM Tris-HCl pH 8.0, 100 mM NaCl (100 mM KCl in Figs 4, 5), 10 mM MgCl2, 1 mM DTT, oxygen scavenger, 37 C; SpCas9 in NEB buffer 3; conditions: protein: recombinant; tags: His tag implied (pET28b, Ni-NTA); label: crRNA 3' Cy5; DNA Cy3, 5' biotin; DNA 5' overhang 2 nt

B1: DNMT1 crRNA + target DNA WT (Fig 2) (mixed)
RNA: AAUUUCUACUCUUGUAGAUCUGAUGGUCCAUGUCUGUUACUC
DNA 1: TTTTTTCACTTGACAGGCGAGTAACAGACATGGACCATCAGGAAACATTAACGTACT
DNA 2: AGTACGTTAATGTTTCCTGATGGTCCATGTCTGTTACTCGCCTGTCAAGTG
modifications: internal amino-dT for dye
binding result (AsCas12a WT [1]): binds

B2: 80% crRNA + 21 kb DNA (mixed)
RNA: AAUUUCUACUCUUGUAGAUACGGUCGAGCGUCAGCGUCCGGG
binding result (AsCas12a WT [2]): binds

B3: DNMT1 crRNA + 17 match DNA (mixed)
RNA: AAUUUCUACUCUUGUAGAUCUGAUGGUCCAUGUCUGUUACUC
DNA 1: TTCACTTGACAGGCACTCGTCAGACATGGACCATCAGGAAACATTAACGTACT
DNA 2: AGTACGTTAATGTTTCCTGATGGTCCATGTCTGACGAGTGCCTGTCAAGTG
binding result [3]: binds

B4: DNMT1 crRNA + target WT (Fig 5) (mixed)
RNA: AAUUUCUACUCUUGUAGAUCUGAUGGUCCAUGUCUGUUACUC
DNA 1: GGATCTCTTAAGTCGTTGAGTAACAGACATGGACCATCAGGAAACACAGTGCAGTATTAGCACTTTTT
DNA 2: GTGCTAATACTGCACTGTGTTTCCTGATGGTCCATGTCTGTTACTCAACGACTTAAGAGATCC
binding result (AsCas12a WT [4]): binds

B5: DNMT1 crRNA + target w/o PAM (mixed)
RNA: AAUUUCUACUCUUGUAGAUCUGAUGGUCCAUGUCUGUUACUC
DNA 1: TTCACTTGACAGGCGAGTAACAGACATGGACCATCAGGAAGCATAAGCGTACT
DNA 2: AGTACGCTTATGCTTCCTGATGGTCCATGTCTGTTACTCGCCTGTCAAGTG
binding result (AsCas12a WT [5]): no binding

B6: DNMT1 crRNA + lambda DNA (mixed)
RNA: AAUUUCUACUCUUGUAGAUCUGAUGGUCCAUGUCUGUUACUC
binding result (AsCas12a WT [6]): binds

B7: DNMT1 crRNA + 0 match DNA (mixed)
RNA: AAUUUCUACUCUUGUAGAUCUGAUGGUCCAUGUCUGUUACUC
DNA 1: TTCACTTGACAGGCACTCGTCTCAACGCACACTGATAGAAACATACACGTACT
DNA 2: AGTACGTGTATGTTTCTATCAGTGTGCGTTGAGACGAGTGCCTGTCAAGTG
binding result [7]: no binding
